Results as given in patent US20150313988.

T1: RLRGG-AMC, C-terminal peptide motif of Ub and ISG15 coupled to aminomethylcoumarin
T1 chain: RLRGG


Key:
[1] = target: FLAG-tagged ubiquitin, P0CG47
[2] = target: ubiquitin-aminomethylcoumarin, P0CG47
[3] = target: T1, RLRGG-AMC, C-terminal peptide motif of …

Sequence of ubiquitin-aminomethylcoumarin, P0CG47 (P0CG47 whole entry, looked up): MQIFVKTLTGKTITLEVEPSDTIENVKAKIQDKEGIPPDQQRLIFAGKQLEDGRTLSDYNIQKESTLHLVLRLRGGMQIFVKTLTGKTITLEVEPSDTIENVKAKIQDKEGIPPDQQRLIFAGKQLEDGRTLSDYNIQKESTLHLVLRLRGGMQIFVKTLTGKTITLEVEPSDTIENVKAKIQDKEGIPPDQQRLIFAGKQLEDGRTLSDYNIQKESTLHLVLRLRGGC
Sequence of FLAG-tagged ubiquitin, P0CG47 (P0CG47 whole entry, looked up): as above

Protein	density of the alpha-flag lane (remaining ubiquitin conjugates) [1]	kcat/KM [2]	kcat/KM [3]	kcat/KM relative to wild type [2]
EAV nsp2-3 polyprotein with N-terminal HA tag, PLP2 mutant I353R (protein) GYNPPGDGACGYRCLAFMNGATVVSAGCSSDLWCDDELAYRVFQLSPTFTVTIPGGRVCPNAKYAMICDKQHWRVKRAKGVGLCLDESCFRGRCNCQRMSGPPPAPVSAAVLDHILEAATFGNVRVVTPEGQPRPVPAPRVRPSANSSGDVKDPAPVPPVPKPRTKLATPNPTQAPIPAPRTRLQGASTQEPLASAGVASDSAPKWRVAKTVYSSAERFRTELVQRARSVGDVLVQALPLKTPAVQRYTMTLKMMRSRFSWHCDVWYPLAVIACLLPIWPSLALLLSFAIGLIPSVGNNVVLTALLVSSANYVASMDHQCEGAACLALLEEEHYYRAVRWRPITGALSLVLNLLGQVGYVARSTFDAAYVPCTVFDLCSFAILYLCRNRCWRCFGRCVRVGPATHVLGSTGQRVSKLALIDLCDHFSKPTIDVVGMATGWSGCYTGTAAMERQCASTVDPHSFDQKKAGATVYLTPPVNSGSALQCLNVMWKRPIGSTVLGEQTGAVVTAVKSISFSPPCCVSTTLPTRPGVTVVDHALYNRLTASGVDPALLRVGQGDFLKLNPGFRLIGGWIYGICYFVLVVVSTFTCLPIKCGIGTRDPFCRRVFSVPVTKTQEHCHAGMCASAEGISLDSLGLTQLQSYWIAAVTSGLVILLVCHRLAISALDLLTLASPLVLLVFPWASVGLLLACSLAGAAVKIQLLATLFVNLFFPQATLVTMGYWACVAALAVYSLMGLRVKVNVPMCVTPAHFLLLARSAGQSREQMLRVSAAAPTNSLLGVARDCYVTGTTRLYIPKEGGMVFE	shows a density of the alpha-flag lane that is about twice as high as that of the T312A lane			
EAV nsp2-3 polyprotein with N-terminal HA tag, PLP2 mutant T312A (protein) GYNPPGDGACGYRCLAFMNGATVVSAGCSSDLWCDDELAYRVFQLSPTFTVAIPGGRVCPNAKYAMICDKQHWRVKRAKGVGLCLDESCFRGICNCQRMSGPPPAPVSAAVLDHILEAATFGNVRVVTPEGQPRPVPAPRVRPSANSSGDVKDPAPVPPVPKPRTKLATPNPTQAPIPAPRTRLQGASTQEPLASAGVASDSAPKWRVAKTVYSSAERFRTELVQRARSVGDVLVQALPLKTPAVQRYTMTLKMMRSRFSWHCDVWYPLAVIACLLPIWPSLALLLSFAIGLIPSVGNNVVLTALLVSSANYVASMDHQCEGAACLALLEEEHYYRAVRWRPITGALSLVLNLLGQVGYVARSTFDAAYVPCTVFDLCSFAILYLCRNRCWRCFGRCVRVGPATHVLGSTGQRVSKLALIDLCDHFSKPTIDVVGMATGWSGCYTGTAAMERQCASTVDPHSFDQKKAGATVYLTPPVNSGSALQCLNVMWKRPIGSTVLGEQTGAVVTAVKSISFSPPCCVSTTLPTRPGVTVVDHALYNRLTASGVDPALLRVGQGDFLKLNPGFRLIGGWIYGICYFVLVVVSTFTCLPIKCGIGTRDPFCRRVFSVPVTKTQEHCHAGMCASAEGISLDSLGLTQLQSYWIAAVTSGLVILLVCHRLAISALDLLTLASPLVLLVFPWASVGLLLACSLAGAAVKIQLLATLFVNLFFPQATLVTMGYWACVAALAVYSLMGLRVKVNVPMCVTPAHFLLLARSAGQSREQMLRVSAAAPTNSLLGVARDCYVTGTTRLYIPKEGGMVFE	a mutant such as T312A already shows a level of DUB-activity that leads to a significantly denser alpha-flag lane, which represents the amount of remaining ubiquitin conjugates, than that of the wild-type virus			
EAV PLP2 domain (residues 261-392 of EAV pp1a) carrying a C-terminal HIS6 purification tag, wild-type (protein) GYNPPGDGACGYRCLAFMNGATVVSAGCSSDLWCDDELAYRVFQLSPTFTVTIPGGRVCPNAKYAMICDKQHWRVKRAKGVGLCLDESCFRGICNCQRMSGPPPAPVSAAVLDHILEAATFGNVRVVTPEGQ		21000 ± 2000 M⁻¹ s⁻¹	48 ± 8 M⁻¹ s⁻¹	
EAV PLP2 domain I353R mutant enzyme (protein) GYNPPGDGACGYRCLAFMNGATVVSAGCSSDLWCDDELAYRVFQLSPTFTVTIPGGRVCPNAKYAMICDKQHWRVKRAKGVGLCLDESCFRGRCNCQRMSGPPPAPVSAAVLDHILEAATFGNVRVVTPEGQ		1100 ± 100 M⁻¹ s⁻¹	71 ± 8 M⁻¹ s⁻¹	the kcat/KM value for Ub-AMC of the mutant I353R is 20 times lower than that of the wild-type virus
